The chains are these.
B1: Cmpd 195 (Kε-(γ-Glu(Nα-C16-Chain))-Cmpd 17) (peptide)
peptide: K([γGlu-C16‑Chain])KCNTATCALQRLAQELHRLQTYPRTNVGSNTY-NH2
modifications: ends and bridges not checked
notes: The description is read as an extra acylated Lys placed before the N-terminus of Cmpd 17
B2: Cmpd 17 (peptide)
peptide: KCNTATCALQRLAQELHRLQTYPRTNVGSNTY-NH2
modifications: ends and bridges not checked
notes: Parent peptide of the fatty acid acylated compounds

Consider three molecules from US20140249076A1 (AstraZeneca / MedImmune, published 2014).

Usually IC50 stands for the concentration that inhibits the measured activity by half. A high value points to weaker potency.

Numbered stars: 1 amine (or outer) side, 2 acyl side, 3 side chain; on linkers, the order of the positions; unused ones are H or OH. Side chains are listed from the residue outwards. Ends that are not written are not given here. γGlu = O=C(O)[C@H](CCC(=O)[*:2])N[*:1]

The target of the first assay is T1, CGRP receptor (SK-N-MC cell membranes) (UniProt Q16602 23-461; O60894 27-148).
T1 construct: whole, on cells
T1 sequence (Q16602 23-461, chain 1 of 2): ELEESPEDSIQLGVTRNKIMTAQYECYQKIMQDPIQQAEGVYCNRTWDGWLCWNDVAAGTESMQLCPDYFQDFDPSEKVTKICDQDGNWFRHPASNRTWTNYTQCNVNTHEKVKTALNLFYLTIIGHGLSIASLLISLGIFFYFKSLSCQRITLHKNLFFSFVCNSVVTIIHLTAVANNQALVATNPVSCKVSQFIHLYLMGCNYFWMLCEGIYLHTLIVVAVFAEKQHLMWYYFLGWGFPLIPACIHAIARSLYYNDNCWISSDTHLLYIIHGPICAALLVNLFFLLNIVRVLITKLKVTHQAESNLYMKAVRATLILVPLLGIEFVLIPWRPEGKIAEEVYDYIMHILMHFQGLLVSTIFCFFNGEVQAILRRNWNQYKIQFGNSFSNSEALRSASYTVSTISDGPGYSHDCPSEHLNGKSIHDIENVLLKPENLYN
T1 sequence (O60894 27-148, chain 2 of 2): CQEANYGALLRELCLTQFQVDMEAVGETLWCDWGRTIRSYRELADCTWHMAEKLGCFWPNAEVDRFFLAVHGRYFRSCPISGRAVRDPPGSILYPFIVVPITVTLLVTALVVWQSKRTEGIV
The experiment in a line: displacement of 125I-human CGRP from SK-N-MC cell membranes. From the text: Dried glass fiber plates were combined with scintillant and counted on a multiwell Perkin Elmer scintillation counter.
A general note: In a radioligand displacement assay an active substance lowers the binding of a labelled ligand.
Molecule K([γGlu-C16‑Chain])CNTATCALQRLAQELHRLQTYPRTNVGSNTY-NH2 (ends and bridges not checked, Lys 1 is already present in Cmpd 17) [Cmpd 192 ([K^1ε-(γ-Glu(Nα-C16-Chain))]-Cmpd 17)] displayed an IC50 of 4.45 nM.

Molecule B1 gave an IC50 of 0.603 nM.

B2 displayed an IC50 of 1.26 nM.

Another assay concerns the target T2, amylin receptor (RNA membranes).
T2 construct: Membrane preparation
The experiment in a line: displacement of 125I-rat amylin from RNA membranes. From the text: Dried glass fiber plates were combined with scintillant and counted on a multi-well Perkin Elmer scintillation counter, as well known in the art.
Regarding K([γGlu-C16‑Chain])CNTATCALQRLAQELHRLQTYPRTNVGSNTY-NH2 (ends and bridges not checked, Lys 1 is already present in Cmpd 17) [Cmpd 192 ([K^1ε-(γ-Glu(Nα-C16-Chain))]-Cmpd 17)], the IC50 stood at 0.518 nM.

As for B1, the half-maximal inhibitory concentration (IC50) was 0.137 nM.

B2 came in with an IC50 of 0.028 nM.
